Source: PMC548379

B1: cold NF-kB specific competition probe (dsDNA)
DNA 1: AGTTGAGGGGACTTTCCCAGGCTTTTT
DNA 2: GCCTGGGAAAGTCCCCTCAACTTTTTT
B2: cold NF-kB nonspecific competition probe (dsDNA)
DNA 1: AGTTGAGATTACTTTCACCAGGCTTTTT
DNA 2: GCCTGTGAAAGTAATCTCAACTTTTTT

Molecular target: NF-kB p50 (rhNF-kB p50) (Homo sapiens, UniProt P19838 1-433)
Test: competition

Chain of NF-kB p50 (rhNF-kB p50) (P19838 1-433): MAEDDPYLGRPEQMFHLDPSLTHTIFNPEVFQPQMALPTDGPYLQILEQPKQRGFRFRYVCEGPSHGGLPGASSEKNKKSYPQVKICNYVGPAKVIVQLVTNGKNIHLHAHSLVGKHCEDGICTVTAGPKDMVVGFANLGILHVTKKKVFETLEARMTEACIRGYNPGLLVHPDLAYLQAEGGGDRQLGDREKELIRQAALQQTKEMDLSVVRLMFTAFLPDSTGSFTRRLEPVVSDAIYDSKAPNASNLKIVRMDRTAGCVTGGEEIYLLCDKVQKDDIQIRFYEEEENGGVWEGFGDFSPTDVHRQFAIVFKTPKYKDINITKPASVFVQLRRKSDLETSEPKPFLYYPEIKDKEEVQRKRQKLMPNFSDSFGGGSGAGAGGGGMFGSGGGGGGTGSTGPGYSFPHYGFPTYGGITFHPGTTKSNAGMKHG

Binder | binding result
B1 | binds
B2 | no binding
